# Measured values from article PMC2998059.
# Molecular target: GST-PC1 C-terminus deletion mutant SH3
# Test: pull-down
substance,measurement,value
"myc-tagged QLα12 (constitutively active, GTPase-deficient Gα12) (from UniProt P27600 48-379) (natural protein)",binding relative to PC1-FLCT,50%
